Target: RSV fusion glycoprotein (RSV F) on RSV-A2 virus (respiratory syncytial virus, UniProt P03420 26-574)
Assay: cell-based or functional assay

Binder | Neutralization IC50 (RSV subtype A)
ADI-41417 (antibody, V domains shown) VH: QVQLVESGGGLVKPGGSLRLSCAASGFTFSSYSMNWVRQAPGKGLEWVSSISAGSSYIYYADSLKGRFTISRDNAKNSLYLQMNSLRAEDTAVYYCARVNTHYYDSSAYHNFDSWGQGTLVTVSS VL: QPVVTQPPSVSGAPGQRVTISCTGSSSNIGAGYDVHWYQQLPGTAPKLLIYGNTNRPSGVPERFSGSKSGTSASLAITGLQAEDEADYYCQSYDTNLSAPWVFGGGTKLTVL | 0.71 µg/mL
ADI-41409 (antibody, V domains shown) VH: QVQLVQSGAEVKKPGASVKVSCKASGYTFTNYGISWVRQAPGQGLEWMGWISAYNGNTNYAQKFQDRVTMTTDTSTSTAYMELRSLRYDDTAVYYCARDTPGEYASAMFDHWGQGTLVTVSS VL: DIVMTQSPLSLPVTLGQPASISCRSSQSLVYSDGNTYLSWFQQRPGQSPRRLIYKVSNRDSGVPDRFSGSGSGTDFTLKISGVEAEDVGVYYCMQGTHWPPTFGQGTKLEIK | 0.29 µg/mL
ADI-41438 (antibody, V domains shown) VH: QVQLVQSGAEMRRPGSSVRLPCKASGYTFVSHTIVWVRQAPGQGLEWMGGIIPSLRTPNYAQNFQDRLTITADESARTAYMELSSLTSNDTAVYYCARETFQGGYYLDYWGQGTLVTVSS VL: EIVMTQSPGTLSVSPGDTAALSCRASQSVGRNLAWYQQKPGQAPRLLIFGASTRAADIPGRFSGSGSGTEFTLTITSLQSEDFAVYYCQQYNKWPPYTFGQGTKVEIK | > 25 µg/mL
ADI-41437 (antibody, V domains shown) VH: QVQLVQSGGEVKKPGASVKVSCKASGYTFTHYGISWARQAPGQGIEWMGWINVHNGNTEYAQRFQGRVTMTTDTSTNTAYMEMTSLTSDDTAVYYCARDKIVVVVVPNYHGMDVWGQGTLVTVSS VL: not shown | > 25 µg/mL
ADI-41423 (antibody, V domains shown) VH: QVQLVESGGGLVKPGGSLRLSCAASGFTFSSYSMNWVRQAPGKGLEWVSSISSSSSYIYYADSVKGRFTISRDNAKNSLYLQMNSLRAEDTAVYYCARDPSSSWNRNDYWGQGTLVTVSS VL: QSVLIQPASVSGSPGQSITISCTGTSSDVGGYNYVSWYQQHPGKAPKLMIYDVSNRPSGVSNRFSGSKSGNTASLTISGLQAEDEADYYCSSYTSSSTLVVFGGGTKVTVL | > 25 µg/mL
ADI-41358 (antibody, V domains shown) VH: EVQLVESGGGLVKPGGSLRLSCEASGFTLTSYSMNWVRQAPGKGLEWVSSISSSSTYIHYADSVKGRFTISRDNAKNSLYLQMNSLRAEDTAVYYCARDKVMVTKYNGMDVWGQGTTVTVSS VL: QSVLTQPPAVSGAPGQRVTISCTGSSSNIGAGHDVHWYQQLPGTAPKLLIYGNSNRPSGVPDRFSGSKSGTSASLAITGLQAGDEADYYCQSYDSSLSGSLFGGGTKLTVL | 0.389 µg/mL
ADI-41397 (antibody, V domains shown) VH: EVQLVESGGGLVKPGGSLRLSCAASGFKFSSYYLNWVRQAPGKGLEWVSSISGGSSYINYADSVKGRFTISRDNAKNTLDLQMSNLRAEDTAVYYCARVVGATGPLYFDLWGRGTLVTVSS VL: QSVLTQPPSVSGAPGQRVTISCTGSSSNIGAGYDVHWYQQFPGTAPKLLIYGNNNRPSGVPDRFSGSKSGTSASLAITGLQAEDEADYYCQSYDSSLSGYVFGAGTKVTVL | 0.09 µg/mL
ADI-41433 (antibody, V domains shown) VH: EVQLLESGGGAVQPGRFLRLSCAASGFTFRSYGMHWVRQAPGKGLEWVAVISYDGSDKYYADSVKGRFTISRDNSKNTLFLLMNGLRAEDAAVYYCAKDIASAGTLRGSDVWGQGTMVTVSS VL: QPVLTQPRSVSGSPGQSVTISCTGTSSDVGGFNYVSWYQQHPGKAPKLMIYDVRVRPSGVPDRFSGSKSGNTASLTISGLQGEDEADYYCCSYTVTYTLVFGGGTKLTVL | > 25 µg/mL
ADI-41359 (antibody, V domains shown) VH: EVQLVESGGGLVKPGGSLRLSCAASGFTISGYSMDWVRQAPGKGLEWVSSISSSSSYIHYADSVKGRFTISRDNAKNSLYLQMNSLRAEDTAVYYCATNPREGGAFDIWGQGTTVTVSS VL: QSVLTQPPSMSGAPGQRVTISCTGSSSNIGAGYDVHWYQQLPGTAPKLLIYNNSNRPSGVPDRFSASKSGTSASLAITGLQAEDEADYYCQSYDSSLSGYVFGTGTRVTVP | > 25 µg/mL
ADI-41396 (antibody, V domains shown) VH: EVQLVESGGGLVNPGGSLRLSCVVSGFAFSSYGMNWVRQAPGKGLEWVSSISASSSYIDYADSVKGRFIISRDNAKNSLHLQMNSLRAEDTAVYYCARLGYDSSTYYTNWFDPWGRGTLVTVSS VL: QSVVTQEPSVSGAPGQRVTISCTGSSSNIGTGYDVHWYQQLPGAAPKLLIYGNSNRPSGVPDRISGSKSGTSASLAITGLQAEDEADYYCQSYDSSLSGYVFGTGTKVTVL | 1.37 µg/mL
ADI-41424 (antibody, V domains shown) VH: QVQLVQSGAEVREPGASVKVSCKPSGYTFANYGISWVRQAPGQGLEWMAWISAYNGNTNYAPKVQGRVSVTTDSSTGIGYMELRSLRSDDTAVYYCVRDTPAIAGAATLDFWGQGTLVTVSS VL: DIVLTQSPLSLAVTPGQSASISCRSRQSHVFSDGNTYVSWFQQRPGRSPRRLIYRVSYRDSGVPDRFSGSGSGSDFTLRISRVEAEDVGVYYCMQGTHWPRTFGQGTKLEIK | 0.28 µg/mL
ADI-41364 (antibody, V domains shown) VH: EVQLLESGAEVKKPGASVKVSCKASGYTFTDHSIHWVRQAPGRGLEWMGWFNPHTGVTDYAQKFQGWVTMTSDTSISTAYMELSSLKSDDTAIYFCARDQWETDGAYFLDYWGQGTLVTVSS VL: QSALTQPASVSGSPGQSITISCTGTSSDVGNFKLVSWYQQHPGKAPKLMIYEGNKRPSGVSNRFSGSKSGNTASLTISGLQAEDEADYYCCSSAVSSTFFGTGTKLTVL | 0.14 µg/mL
ADI-41390 (antibody, V domains shown) VH: EVQLVESGGGLVKPGGSLRLSCAASGFSSSSYFMNWVRQAPGKGPEWVSSISGSSSFINYADSVKGRFTISRDNAKNSLYLQMNSLRAEDTAVYYCARAVLPAGVGGYWFDSWGQGTLVTVSS VL: QSVVTQPPSVSGAPGQRVTISCTGSSSNIGAGYDVHWYQHLPGRAPKLLIYGNSNRPSGVPDRFSGSKSGTSASLVITGLQAEDEADYCCQSYDSSLSGAVFGGGTQLTVL | 0.62 µg/mL
ADI-41408 (antibody, V domains shown) VH: QVQLVESGAEVKKPGESLKISCRDSGYSFSSFWIGWVRQMPGKGLEWVGIIYPGDSDIRYSPSFQGRVTISADKSISTAYLQWRSLKASDSAMYYCARSEKLGSFDRWGQGTLVTVSS VL: DIQMTQSPSSLSASVGDRVTITCQANRDISNCLNWYQQRPGKAPELLIYDASYLETGVPSRFTGSGSGTDFTFTISSLQPEDIATYYCQQYDNLLFTFGPGTKVEIK | > 25 µg/mL
ADI-41362 (antibody, V domains shown) VH: EVQLVESGGGLVQPGGSLRLSCAASGFTFSDHWMNWVRQTPGKGLEWVANIKPDGRETYYVDSVKGRFTISRDNSKKSVYLQMNSLRAEDTAVYYCVRDGHIVVVTAVPPGFFDLWGRGTLVTVSS VL: DIQVTQSPSSLSASVGDRVTITCQASQDLTKYLNWYQQKPGKAPKLLIYDISNLETGVPSRFSGSGFGTEFTLTISSLQPEDVATYYCQQYQNLPYTFGQGTKVEIK | 0.911 µg/mL
ADI-41394 (antibody, V domains shown) VH: QVQLVQSGAEVKKPGSSVKVSCKASGGTFNTYAISWVRQAPGQGLEWMGGIIPILGVSNYAQRFQGRVTFSADELTNTAYMELSSLRSEDTAVYFCARPVGAYTLGDAFEIWGRGTTVTVSS VL: QPVLTQSSSASASLGSSVKLTCTLSSGHSDFIIAWHQQQPGKAPRYLMKFEGNGRYSKGSGIPDRFSGSSSGADRCLTISNLQSEDEADYYCETWDSNTHVVFGGGTKLTVL | > 25 µg/mL
ADI-41399 (antibody, V domains shown) VH: QVQLVQSGAEVKKPGASVKVSCKASGYTFTTFAIHWVRQAPGQRLEWMGWINAGNGNTKYSQKFQGRVTITRDTSASTAYMELSSLRSEDTAVYYCARPEISSSSLNEKDDYWGQGTLVTVSS VL: QPVLTQPASVSGSPGQSITISCTGTSSDVGAYDFVSWYQQHPGKAPKFMIYEVSHRPSGVSNRFSGSKSGNTASLTISGLQAEDEADYYCSSYTTSNTLVFGGGTKLTVL | > 25 µg/mL
ADI-41357 (antibody, V domains shown) VH: EVQLVESGGGLVQPGGSLRLSCAASGFTFSTYGMNWVRQAPGKGLEWVSYIGGSGRIIYYADSVKGRFTISRDNAKNSLYLQMNSLRAEDTAVYYCARDQHIVLVTGSTPDYWGQGTLVTVSS VL: EIVLTQSPSSLSASVGDRVTITCRASHAISNYLAWFQQKPGKAPKSLIYAASTLQSGVPSKFSGSGSGTDFTLTISSLQPEDFATYYCQQYSSYPLTFGGGTKVEIK | > 25 µg/mL
ADI-41382 (antibody, V domains shown) VH: EVQLVESGGGLVQPGRSLRLSCAASGFTFDDYAMHWVRQAPGKGLEWVSGISWSGDTRGYAESVKGRFTITRDNAKKYLYLQMNSLRAEDTAFYYCAKDAYYFGSGNEKFYYGMDVWGQGTTVTVSS VL: not shown | 0.02 µg/mL
ADI-41386 (antibody, V domains shown) VH: QVQLVQSGAEVKKPGASVKVSCKASGYTFTGNYIHWVRQAPGQGLEWMGGINPNSGATNYARKFQGRISMTRDTSINTAYMEVSSLRSDDTATYYCARDAPPVVIPAAIHWFDAWGQGTLVTVSS VL: SYELTQPPSASGTPGQRVTISCSGSSSNIGRNTVNWYQQFSGTAPRLLIYRTNQRPSGVPDRFSGSKSGTSASLVISGLQSEDEADYYCASWHDTLNDVVFGGGTKLTVL | > 25 µg/mL
ADI-41363 (antibody, V domains shown) VH: QVQLVQSGAEVKKPGSSVKVSCKASGGTFSSYAITWVRQAPGQGLEWMGGIIPLFGTAKYAQQFQGRVTITADESTSTAYMELSSLRSEDTAVYYCARDGEVCTNGFCWFLDWGLGTLVTVSS VL: DIRVTQSPSSLSASVGDRVTITCQASQDISNYLNWYQQKPGKAPKLLIYDASKLETGVPSRFSGSGSGTDFTFTISSLQPEDIATYYCQNYGNFPHFGGGTKLEIK | 0.143 µg/mL
ADI-41380 (antibody, V domains shown) VH: QVQLVQSGAEVKKPGESLKISCKGSGYSFTSYWIGWVRQMPGKGLEWMGIIYPGDSDTRYSPSFQGQVTISADKSISTAYLQWSSLKASDTAMYYCASSRAYYDILTGYYVASAETQTKAAFDIWGQGTTVTVSS VL: DIQVTQSPSSLSASVGDRVTITCQASQDISNYLNWYQQKPGKAPKLLIYDASNLETGVPSRFSGSGSGTDFSFTISSLQPEDIATYYCQQYDNLITFGQGTKVEIK | 0.0549 µg/mL

— US20260258115A1 (MAPP BIOPHARMACEUTICAL, published 2026)
